Consider 41 sequences from the nanobody polyreactivity screen of Harvey et al. (2022).

The data set is described as follows: yeast display, Sf9 membrane polyspecificity reagent, FACS + sequencing; frameworks hold sequencing errors. An outline of the steps: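 Nanobodies from a synthetic yeast display library (Saccharomyces cerevisiae BJ5465), induced 36–48 hours with galactose, were stained 1 hour at 4 °C with 10% biotinylated, detergent-solubilized Sf9 membrane reagent, enriched on streptavidin microbeads, then FACS-sorted. Anti-HA (expression) and streptavidin (reagent binding) fluorescence set low and high (top ~1%) gates. Polyreactivity labels come from the gate of origin. Genes were colony-PCR amplified, MiSeq 2 × 250 sequenced and filtered by CDR length.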
Take “QVQLVESGGGLVQAGGSLRLSCAASGSIFAWYGMGWYRQAPGKERELVAAITSTGSTYYADSVKGRFTISRDNAKKTVYLQMNSLKPEDTAVYYCNAYSVYLWRPGDYWGQGTQVTVSS”: the “polyreactivity (PSR sort gate)” value is recorded as “low polyreactivity”.

For “QVQLVESGGGLVQAGGSLRLSCAASGSIFAWYTMGWYRQAPGKERELVATITRGGSTTYADSVKGRFTISRDNAKITVYLQMNSLKPEDTAVYYCAADWRTKGYDSLGQGTQVTVSS”, the “polyreactivity (PSR sort gate)” value is on record as “high polyreactivity”.

Regarding “QVQLVESGGGLVQAGGSLRLSCAASGSIFAYNAMGRYRPAPGKERELGAAITSDDSTNYADSVKGRFTISRDNAKNSVYLQMNSLKPEDTAVYYCAAYYYYTYIIGYDYCGQGTQVTVSS”, the “polyreactivity (PSR sort gate)” value is “low polyreactivity”.

“QVQLVESGGGLVQAGGSLRLSCAASGSIFAYNAMGWYRQAPGKERELVAAISSGGRTKYADSVKGRFTISRDNAKNTVYLQMNSLKPEDTAVYYCAAESYTGKYSWVWKWYDYWGQGTQVTVSS”: the “polyreactivity (PSR sort gate)” value was “low polyreactivity”.

Regarding “QVQLVESGGGLVQAGGSLRLSCAASGSIFAYNTMGWYRQAPGKEREFVAAISWRGGSTYYADSVKGRFTISRDNAKNTVYLQMTSLKPEDTAVYYCNARYRNTFYTRRYDYWGQGTQVTVSS”, the “polyreactivity (PSR sort gate)” value is listed as “high polyreactivity”.

“QVQLVESGGGLVQAGGSLRLSCAASGSIFAYYALGWYRQAPGKERELVASIDWSGDLYVRDSVKGRFTISRDNAKNTVYFLMNSLKPEDTAVYYCAKDVSFQYGTGYDYWGQGNQVTVSS”: the “polyreactivity (PSR sort gate)” value is on record as “low polyreactivity”.

Take “QVQLVESGGGLVQAGGSLRLSCAASGSIFAYYAMGWYRQAPGKERELVAAIDSGGGTSYADSVKGRFTISRDNAKNTVYLQMNSLNPEDTAVYYCNAAGYVVYYRIIAFGYWGQGTLVTVSS”: the “polyreactivity (PSR sort gate)” value was “low polyreactivity”.

In the case of “QVQLVESGGGLVQAGGSLRLSCAASGSIFAYYAMGWYRQAPGKERELVAAITSGDSTYYADSVKGRFTISRDNAKNTVYLQMNSLKPEDTAVYYCAADVSWRSNWYDYWGQGTQVTVSS”, the “polyreactivity (PSR sort gate)” value was “low polyreactivity”.

In the case of “QVQLVESGGGLVQAGGSLRLSCAASGSIFAYYTMGWYRQAPGKEREFVAAISYSGGSTYYADSVKGRFTISRDNAKNTVYLQMNSLKPEDTAVYYCFPGKTRLYGYWGQGTQVTVSS”, the “polyreactivity (PSR sort gate)” value is listed as “high polyreactivity”.

For the sequence “QVQLVESGGGLVQAGGSLRLSCAASGSIFAYYVMGWYRQAPGKERELVAAISRSGGRTYYADSVKGRFTISRDNAKNTVYLQMNSLKPEETAVYYCNSELYSRPPGAQDPRLRFDYWGQGTQVTVSS”, the “polyreactivity (PSR sort gate)” value is “high polyreactivity”.

Take “QVQLVESGGGLVQAGGSLRLSCAASGSIFCYYAMGWYRQAPGKERELVATITSGGSTSYADSVKGRFTISRDNAKNTVYLQMNSLKPEDTAVYYCAAARLFTTYDWGQGTQVTVSS”: the “polyreactivity (PSR sort gate)” value is reported as “low polyreactivity”.

“QVQLVESGGGLVQAGGSLRLSCAASGSIFDAYMGWYRQAPGKERELVAGITRSGGSTYYADSVKGRFTISRDNAKNSVYLQMNSLKPEDTAVYYCAADYSSDGDYWGQGTQVTVSS”: the “polyreactivity (PSR sort gate)” value was “low polyreactivity”.

For the sequence “QVQLVESGGGLVQAGGSLRLSCAASGSIFDDYAMGWYRQAPGKERELVAAITSGGSTYYADSVKGRFTISRDNAKKTVYLLMYSLKPEDTAVYFRATRYHWSSSFAPVGAYGYWGQGTQVTVSS”, the “polyreactivity (PSR sort gate)” value is on record as “low polyreactivity”.

For the sequence “QVQLVESGGGLVQAGGSLRLSCAASGSIFDFNAMGWYRQAPGKERELVAAITWGGGSTYYADSVKGRFTISRDNAKNTVYLQMNSLKPEDTAVYYCNAAYGRYRYDYWGQGTQVTVSS”, the “polyreactivity (PSR sort gate)” value was “low polyreactivity”.

Take “QVQLVESGGGLVQAGGSLRLSCAASGSIFDFYAMGRYRQAPGKERELVAAISYSGSSTYYADSVKGRFTISRDNAKNTVYLQMNSLKPEDTAVDYCATDYPGGYVYYSRFDYWGQGTQVTVSS”: the “polyreactivity (PSR sort gate)” value was “low polyreactivity”.

“QVQLVESGGGLVQAGGSLRLSCAASGSIFDFYAMGWYRQAPGKERELVAAINSGGRTYADSVKGRFTISRDNAKNTVYLQMNSLKPEDTAVYYCAAEYQYLSVEVTDIWYLTKYDYWGQGTQVTVSS”: the “polyreactivity (PSR sort gate)” value is “low polyreactivity”.

“QVQLVESGGGLVQAGGSLRLSCAASGSIFDFYAMGWYRQAPGKERELVATITASGGSTYYADSVKGRFTISRDNAKNTVYLQMNSLKPEDTAVSYCNADSVYWGQGTQVTVSS”: the “polyreactivity (PSR sort gate)” value is recorded as “low polyreactivity”.

In the case of “QVQLVESGGGLVQAGGSLRLSCAASGSIFDGYAMGGSRQAPGNERELLAAISSGTSTNYADSVKGRFTISRDNAKNTVYLQMNSLKPEDTAVYYCNAYPPYLYATYDYWGQGTQVTVSS”, the “polyreactivity (PSR sort gate)” value was “low polyreactivity”.

On to “QVQLVESGGGLVQAGGSLRLSCAASGSIFDGYAMGWYRQAPGKEREFVAAITKRTGRTYYADSVKGRFTISRDNAKNTVYLQMNSLKPEDTAVYYCAAAIPRFSAGHYDYCGQGTQVTVSS”, for which the “polyreactivity (PSR sort gate)” value is on record as “high polyreactivity”.

“QVQLVESGGGLVQAGGSLRLSCAASGSIFDGYAMGWYRQAPGKEREFVASIRFSTGRTYYADSVKGRFTISRDNAKNSVYLQMNSLKPEDTAGYYCNAPQGFVWRYSSWGPYDYWGQGTQVTVSS”: the “polyreactivity (PSR sort gate)” value was “high polyreactivity”.

Take “QVQLVESGGGLVQAGGSLRLSCAASGSIFDHNAMGWYRQAPGKEREFVARITSSGGGTYYADSVKGRFTISRDNAKNTVYLQMNSLKPEDTAVYYCAKTYYRQGARYPTLFYYWGQGTQVTVSS”: the “polyreactivity (PSR sort gate)” value is reported as “low polyreactivity”.

On to “QVQLVESGGGLVQAGGSLRLSCAASGSIFDKNAMGWYRQAPGKERELVAAISRSGGRTYYADSVKGRFTISRDNAKNTVYLQMNSLKPEDTAVYYCNAVYYYRPYWRQSTLSQYGYWGQGTQVTVSS”, for which the “polyreactivity (PSR sort gate)” value is “high polyreactivity”.

With “QVQLVESGGGLVQAGGSLRLSCAASGSIFDLNAMGWYRQAPGKERELVAAISKSGGSTYYADSVKGRFTISRDNAKNTVYLQMNSLKPEDTAVYYCAKDRKYHLSGGYDYWGQGSQVTVSS”, the “polyreactivity (PSR sort gate)” value is “low polyreactivity”.

With “QVQLVESGGGLVQAGGSLRLSCAASGSIFDLNAMGWYRQAPGKERELVAAISSGGGTYYADSVKGRFTISRDNAKNTVYLKMNSLKPEDTAVYYCKRVTRWTYNYWGQGTQVSVSS”, the “polyreactivity (PSR sort gate)” value is reported as “high polyreactivity”.

As for “QVQLVESGGGLVQAGGSLRLSCAASGSIFDLNAMGWYRQAPGKERELVAAISSVGGTYYADSVKGRFTISRDNAKNTGYLQMNSLKPEDTAVYYCNRVTRWTYNYWGQGTQVTVSS”, the “polyreactivity (PSR sort gate)” value was “high polyreactivity”.

For the sequence “QVQLVESGGGLVQAGGSLRLSCAASGSIFDLYAMGWYRQAPGKERELVAGISYSGGSTYYADSVKGRFTISRDNAKNTVYLQMNSLKPEDTAVYYCAADDSYWYDNYIDEAAANTFDYWGQGTQVTVSS”, the “polyreactivity (PSR sort gate)” value is on record as “low polyreactivity”.

For “QVQLVESGGGLVQAGGSLRLSCAASGSIFDNYAMGWYRQAPGKERELVAAINFSDGDTYYADSVKGRFTISRDNAKNTVYLQMNSLKPEDTAVYYCAAEVWYPPEYYDEYDYWGQGTQVTVSS”, the “polyreactivity (PSR sort gate)” value is listed as “low polyreactivity”.

Take “QVQLVESGGGLVQAGGSLRLSCAASGSIFDPYAMGGYRQAPGKERELVAAISFITGGTYYADSVMGRFTISRDNAMNTVYLQMNSLKPEDTAVYYCNADYFYKGGWVWRDEYWGQGTQVTVSS”: the “polyreactivity (PSR sort gate)” value is listed as “high polyreactivity”.

Regarding “QVQLVESGGGLVQAGGSLRLSCAASGSIFDPYAMGWYRQAPGKEREFVAAISWSGGSTYYADSVKGRFTISRDNAKNTVYLQMNSLIPEDTAVYYCAAGTQWYSQVYIYYYWGQGTQVTVSS”, the “polyreactivity (PSR sort gate)” value was “low polyreactivity”.

Regarding “QVQLVESGGGLVQAGGSLRLSCAASGSIFDPYAMGWYRQAPGKERELVAAITASASSTYYADSVKGRFTISRDNAKNTVYLQMYSLKPEDTAVYYCAADRANWEYLLSLLGYDYWGQGTQVTVSS”, the “polyreactivity (PSR sort gate)” value is “low polyreactivity”.

For the sequence “QVQLVESGGGLVQAGGSLRLSCAASGSIFDRNAMGWYRQAPGKERELVAAISVSGGSTYYADSVKGRFTISRDNAKNTVYLQMNSLKPEDTAVYYCAKAGRYANLPYGYWGQGTQVTVSS”, the “polyreactivity (PSR sort gate)” value is “high polyreactivity”.

In the case of “QVQLVESGGGLVQAGGSLRLSCAASGSIFDRNAMGWYRQAPGKERELVASISYSGGTTYADSVKGRFTISRDNAKNTVYLQMNSLKPEDTAVYYCNAGGVYPRFTFLEQGYEMDYWGQGTQVTVSS”, the “polyreactivity (PSR sort gate)” value was “low polyreactivity”.

Take “QVQLVESGGGLVQAGGSLRLSCAASGSIFDRYAMGWYRKAPGKERELVASITYSGGSTYYADSVKGRFTISRDNAKNTVYLQMKSLKPEDTAVYYCAKVIRLVGDYDYWGQGTQVTVSS”: the “polyreactivity (PSR sort gate)” value is listed as “low polyreactivity”.

As for “QVQLVESGGGLVQAGGSLRLSCAASGSIFDRYAMGWYRQAPGKERELVASISNRGGRTFYADSVKGRFTISRDNAKNTVYLQMNSLKPEDTAVYYCARKTYYTGDFLGREYGYWGQGTQVTVSS”, the “polyreactivity (PSR sort gate)” value is “low polyreactivity”.

As for “QVQLVESGGGLVQAGGSLRLSCAASGSIFDSKAMGWYRQAPGKERELVAAISQGGDDTYYADSVKGRFTISRDNAKNTVYLQMNSLKPEDTAVYYCAAEFFYITGAYDYWGQGTQVTVSS”, the “polyreactivity (PSR sort gate)” value is “low polyreactivity”.

On to “QVQLVESGGGLVQAGGSLRLSCAASGSIFDSNAMGWYRQAPGKERELVADIRGIGGSTYYADSVKGRFTISRDHAKNTVYLQMNSLKPEDTAVYYCNTSTLGGYYWGQGTQVTVSS”, for which the “polyreactivity (PSR sort gate)” value was “low polyreactivity”.

Consider “QVQLVESGGGLVQAGGSLRLSCAASGSIFDSYAMGWYRQAPGKERELVASISSDGGGTYYADSVKGRFTISRDNAKNTVYLQMNSLKPEDTAVYYCARTRTYNSRTMDYWGQGTQVTVSS”, for which the “polyreactivity (PSR sort gate)” value was “low polyreactivity”.

For “QVQLVESGGGLVQAGGSLRLSCAASGSIFDSYANGWSRQAPGKERELVAAISSRGGRTYYADSVKGRFTISRDNAKNTVYLQMNSLKPEDTAVYYCAAGLYRYYWYGFDYWGQGTQVTVSS”, the “polyreactivity (PSR sort gate)” value was “high polyreactivity”.

Consider “QVQLVESGGGLVQAGGSLRLSCAASGSIFDTYAMGCYRPAPGKERELVAAICWSDTSTYADSVKGRFTISRDNAKNTVYLQMNSMKTEDTAVSYCAADFYYYSYYEYVYWGQGTLVTVSS”, for which the “polyreactivity (PSR sort gate)” value is reported as “low polyreactivity”.

For the sequence “QVQLVESGGGLVQAGGSLRLSCAASGSIFDTYAMGWYRQAPGKERELVAAITWSGSSTYYADSVKGRFTISRDNAKNTVSLQMNRLKPEDTAVYYCAKRQYLYTSKYDYWGQGTQVTVSS”, the “polyreactivity (PSR sort gate)” value is recorded as “high polyreactivity”.

On to “QVQLVESGGGLVQAGGSLRLSCAASGSIFDVNAMGWYRQAPGKERELVAGISWSGGSTYYADSVKGRFTISRDNAKNTVYLQMNSLKPEDTAVYYCNAEGPIYFYFYRGMDYWGQGTQVTVSS”, for which the “polyreactivity (PSR sort gate)” value is listed as “low polyreactivity”.
